Assay results from US20160326230A1, “HUMAN RELAXIN ANALOGUE, PHARMACEUTICAL COMPOSITION OF SAME, AND PHARMACEUTICAL APPLICATION OF SAME” (SHANGHAI HENGRUI PHARMACEUTICAL CO., LTD., priority 2013, published 2016).

Assays:
[1] = In vivo half-life measurement in rats (Human relaxin-2 ELISA of blood samples); design: species or system Sprague Dawley (SD) rats; conditions: SD rats, caudal vein injection, 0.5 mg/kg/rat
Experimental: A total of 12 experimental Sprague Dawley (SD) rats (6 male and 6 female) were used in this test (purchased from SINO-BRITSH SIPPR/BK LAB. ANIMAL LTD., CO, Certificate No.: SCXK (Shanghai) 2008-0016, 160-180 g), and the maintenance environment was SPF grade. SD rats were kept for 3 days in the laboratory environment, at a temperature of 20-25° C., with a humidity of 40-60%. The wild-type human relaxin analog 800828 (WT, prepared in Example 29) with the original sequence was used as a positive control in this test.
Rats were randomly divided into 3 groups, with 4 rats in each group, half males and half females. Control (saline) and human relaxin (analog 800814, WT 800828) were injected into the caudal vein of the rats (4 rats/sample) with a dose of 0.5 mg/kg/rat. Blood samples were taken from the rats' orbital sinuses at 0 h, 0.03 h, 0.08 h, 0.25 h, 0.5 h, 1 h, 1.5 h, 2 h, 4 h, 6 h and 8 h after the injections. Blood samples were centrifuged, and the supernatant was collected and stored at −20° C. for further analysis. After blood collection, the content of relaxin in the blood samples was detected using the Human relaxin-2 Quantikine ELISA Kit (R&D). The T1/2 of the test drug was calculated by T1/2 formula and EXCEL.

THP-1 cells = experiment: In vitro bioactivity assay: cAMP production induced in THP-1 cells (cAMP ELISA); format: cell-based; conditions: 30 min incubation, forskolin + IBMX, average of three experiments, listed as 800828 (WT)
Experimental: The disclosed human relaxin analog (800814) binds to the receptor on THP-1 cells, and induces the production of cAMP in THP-1 cells. To determine the in vitro activity of human relaxin analog (800814), the generation of cAMP was detected. The wild-type human relaxin analog 800828 (WT) (prepared in Example 29) with the original sequence was used in this test as a positive control.
The cells used in the experiments, i.e., THP-1 (ATCC, Product Number: TIB-202™), were cultured in suspension at 37° C., 5% CO2, and used for experiments or passage when the cells were preferably in the logarithmic growth phase. THP-1 cells can be passaged every 2-3 days, with a dilution ratio of 1:3 to 1:4. The medium was RPMI1640, with 0.05 mM b-mercaptoethanol and 10% FBS. On the day of the experiment, THP-1 cells in logarithmic growth phase were collected by centrifugation, and resuspended in DMEM/F12. The cell density was adjusted to 2×10^6 cells/ml, and the cells were seeded in a 96-well plate (50 μl each well) and incubated in a 37° C. incubator for 30 minutes. […] The content of cAMP was detected with a CAMP ELISA KIT (CELL BIOLABS).
Data obtained in the above experiment was fit to a nonlinear curve using Graphpad Prism, and the EC50 value (ng/ml) of CAMP induced in the THP-1 cells by human relaxin analog (800814) was determined.

ICR mice = experiment: In vivo biological activity: pubis width in estradiol-primed female ICR mice; conditions: s.c. 6 μg/100 μl/mouse, 40 hours later, ratio to solvent control group (=1)
Experimental: ICR mice (female, purchased from SINO-BRITSH SIPPR/BK LAB. ANIMAL LTD., CO, Certificate No.: SCXK (Shanghai) 2008-0016, 18-20 g) were used in this test, and the maintenance environment was SPF grade. After their purchase, ICR mice were kept in the laboratory environment for two weeks in the following conditions: illumination: 12/12-hour light/dark cycle regulation, temperature: 20-25° C.; humidity: 40-60%. The wild-type human relaxin analog 800828 (WT, prepared in Example 29) with the original sequence was used as a positive control in this test.
One week before the experiment, each female ICR mouse was subcutaneously injected with 5 μg/100 μ1/animal of β-estradiol (water-insoluble, slightly soluble in oil), which was mixed with olive oil. Six days later, ICR mice with a body weight less than 22 g were excluded, and the rest of the animals were equally divided into groups according to body weight. The animals were subcutaneously injected with relaxin 800828 (WT) ([…]/100 μl/mouse), 800814 (6 μg/100 μl/mouse) or 0.1% benzopurpurine 4B saline (solvent control group). Relaxin 800828 (WT) and 800814 were dissolved in physiological saline containing 0.1% benzopurpurin 4B. 40 hours later, the pubic bones were removed, skin and muscle were removed from the bone, and the pubis width was measured under microscope. […]

EC50 of cAMP induced in THP-1 cells (THP-1 cells) | Compound | T1/2 [1] | half-life ([1]; both sexes, Sprague Dawley, supernatant of centrifuged blood, iv) | relative pubic width (ICR mice)
– | CC[C@H](C)[C@@H]1NC(=O)[C@H](C)NC(=O)[C@H]([C@@H](C)CC)NC(=O)[C@H](CCC(N)=O)NC(=O)[C@H](C)NC(=O)[C@H](CCCNC(=N)N)NC(=O)[C@H](C(C)C)NC(=O)[C@H](CC(C)C)NC(=O)[C@H](CC(=O)O)NC(=O)[C@H](CCCNC(=N)N)NC(=O)CNC(=O)[C@@H](NC(=O)[C@H](CC(C)C)NC(=O)[C@H](CCCCN)NC(=O)[C@@H](NC(=O)[C@@H](NC(=O)[C@H](CCC(=O)O)NC(=O)[C@H](CCC(=O)O)NC(=O)[C@H](CCSC)NC(=O)[C@H](Cc2c[nH]c3ccccc23)NC(=O)[C@H](CO)NC(=O)[C@@H](N)CC(=O)O)C(C)C)[C@@H](C)CC)CSSC[C@@H]2NC(=O)[C@@H](NC(=O)[C@H](CCCCN)NC(=O)[C@H](CC(N)=O)NC(=O)[C@H](C)NC(=O)[C@H](CC(C)C)NC(=O)[C@H](C)NC(=O)[C@H](CO)NC(=O)[C@H](Cc3ccc(O)cc3)NC(=O)[C@H](CC(C)C)NC(=O)[C@@H](N)CC(=O)O)CSSC[C@H](NC(=O)CNC(=O)[C@H](C(C)C)NC(=O)[C@H](Cc3c[nH]cn3)NC2=O)C(=O)N[C@@H]([C@@H](C)O)C(=O)N[C@@H](CCCCN)C(=O)N[C@@H](CCCNC(=N)N)C(=O)N[C@@H](CO)C(=O)N[C@@H](CC(C)C)C(=O)N[C@@H](C)C(=O)N[C@@H](CCCNC(=N)N)C(=O)N[C@@H](Cc2ccccc2)C(=O)N[C@H](C(=O)O)CSSC[C@@H](C(=O)NCC(=O)N[C@@H](CCSC)C(=O)N[C@@H](CO)C(=O)N[C@H](C(=O)N[C@@H](Cc2c[nH]c3ccccc23)C(=O)N[C@@H](CO)C(=O)O)[C@@H](C)O)NC1=O [relaxin 800814] | does not affect its half-life | 52.8 min | –
3.05 ng/mL | relaxin 800828: wild-type human relaxin with the original sequence, expressed in E. coli, refolded and digested; positive control; precursor SEQ ID NO: 23 | 52.2 min | – | 1.24
